{"source": "patent US11253617B2", "about": "“One step 64Cu-BaBaSar-RGD2 production method” (UNIVERSITY OF SOUTHERN CALIFORNIA, priority 2017, dated 2022)", "key": {"[1]": {"conditions": "reference 24; cited from earlier work"}, "[2]": {"assay": "Estimated human absorbed doses (Olinda/EXM) from PET biodistribution in macaque monkey", "assay_type": "in vivo", "procedure": "(§1) The PET images at 1, 5, 10, 20, 40, 60, 120, and 180 min after injection are disclosed in FIG. 4. […] The bladder content was visualized at 10 min after injection and more and more activity was accumulated in urine bladder content. […] Gallbladder uptake was not observed during the whole scan. […] The urinary bladder had the highest uptake, with 51.37%±8.73% of injected activity at 1 h post injection. The maximum uptake for the liver, and kidneys were 37.40±6.63% ID (9 min) and 26.79±4.35% ID (0.5 min) respectively.\nThe mean organ doses for the human phantom were calculated with Olinda/EXM using ^64Cu-BaBaSar-RGD2 biodistribution in monkey (Table 2). The kidneys had the highest radiation-absorbed doses (108.43 μGy/MBq), followed by the bladder wall (87.07 μGy/MBq). The mean effective dose of ^64Cu-BaBaSar-RGD2 was 15.30±2.21 μSv/MBq. […] The estimated doses for […] were higher by 18% because body and organ sizes of women are smaller than those men (data not shown).\nIntegrin αvβ3-targeted radiopharmaceutical ^64Cu-BaBaSar-RGD2 has been successfully synthesized with the one-step kit method. The straightforward method greatly simplifies the production process and benefits the clinical application of ^64Cu-BaBaSar-RGD2. Human radiation dosimetry of ^64Cu-BaBaSar-RGD2 was estimated after intravenous administration in macaque monkey, by PET imaging and OLINDA/EXM calculations. The critical organs were kidneys and urinary bladder wall. The mean effective dose, determined with the male adult model, was […]. […] Therefore, ^64Cu-BaBaSar-RGD2 can safely be used in human scan for further evaluation of its performance as an integrin-targeting probe."}, "[3]": {"assay": "PET/CT biodistribution in macaque monkey", "assay_type": "in vivo", "conditions": "for tissue uptake dose: monkey, iv, total radioactivity", "procedure": "FIG. 4: Decay-corrected anterior maximum-intensity projections of PET/CT at 1, 5, 10, 20, 40, 60, 120, and 180 min after injection of ^64Cu-BaBaSar-RGD2 in macaque monkey.\nas §1"}, "[4]": {"assay": "Vital signs after injection in macaque monkey", "assay_type": "in vivo", "conditions": "13.1-19.7 MBq/kg, during and 24-h after PET scan", "procedure": "as §1"}, "[5]": {"assay": "Blood clearance from venous blood samples during PET scan", "assay_type": "in vivo, monkey", "procedure": "Venous blood samples were withdrawn from monkey during the PET scan. […] At 22 h after injection, the activity in the blood decreased to 0.79±0.52% ID. Based on the percentage of injected dose in blood sample, the half life of ^64Cu-BaBaSar-RGD2 in blood pool was calculated as 12.1±4.0 min (n=3)."}, "[6]": {"conditions": "in vitro and in vivo, reference 23; cited from earlier work"}, "U87MG glioblastoma tumor": {"system": "U87MG glioblastoma tumor", "conditions": "cited from earlier work"}, "[7]": {"conditions": "human phantom, Olinda/EXM, monkey biodistribution, Mean ± SD"}, "[8]": {"conditions": "male human phantom, Olinda/EXM, monkey biodistribution, Mean ± SD"}}, "note": "Several values for one entry are separate records, joined by “and”; a condition that tells them apart may be missing. Equal entries are not always repeated. Where two headings read alike, the source gives them in different places."}
{"smiles": "OC[C@H]1OC(O)[C@H]([18F])[C@@H](O)[C@@H]1O", "note": "(stereo partly drawn) [^18F-FDG, 2-deoxy-2-[^18F]fluoro-D-glucose]", "values": [{"measurement": "Estimated dose in a whole-body PET scan", "setting": "[1]", "value": 6.23, "unit": "mSv"}]}
{"smiles": "N=C(N)NCCC[C@@H]1NC(=O)[C@H](CCCCNC(=O)c2ccc(CNC34CNCCNCC(NCc5ccc(C(=O)NCCCC[C@@H]6NC(=O)[C@@H](Cc7ccc(O)cc7)NC(=O)[C@H](CC(=O)O)NC(=O)CNC(=O)[C@H](CCCNC(=N)N)NC6=O)cc5)(CNCCNC3)CNCCNC4)cc2)NC(=O)[C@@H](Cc2ccc(O)cc2)NC(=O)[C@H](CC(=O)O)NC(=O)CNC1=O", "note": "[^64Cu-BaBaSar-RGD2, metal not drawn]", "values": [{"measurement": "Effective dose for the non-voiding model", "setting": "[2]; 925-MBq administrated into human subject", "value": 14.2, "unit": "mSv"}, {"measurement": "Mean effective dose, male adult model", "setting": "[2]; OLINDA/EXM, intravenous administration in macaque monkey", "value": "15.30±2.21", "unit": "Sv/MBq"}, {"measurement": "Estimated doses for the female human, higher than male by", "setting": "[2]; female versus male human phantom", "value": 18, "unit": "%"}, {"measurement": "Estimated human absorbed dose, Ovaries", "setting": "[2]; [7]", "value": "2.88 ± 0.44", "unit": "μGy/MBq"}, {"measurement": "Estimated human absorbed dose, Uterus", "setting": "[2]; [7]", "value": "4.16 ± 0.63", "unit": "μGy/MBq"}, {"measurement": "Effective Dose (mean)", "setting": "[2]; [8]", "value": "15.30±2.21", "unit": "μSv/MBq"}, {"measurement": "Estimated human absorbed dose, Adrenals", "setting": "[2]; [8]", "value": "3.34 ± 0.52", "unit": "μGy/MBq"}, {"measurement": "Estimated human absorbed dose, Brain", "setting": "[2]; [8]", "value": "1.27 ± 0.22", "unit": "μGy/MBq"}, {"measurement": "Estimated human absorbed dose, Breasts", "setting": "[2]; [8]", "value": "1.34 ± 0.23", "unit": "μGy/MBq"}, {"measurement": "Estimated human absorbed dose, Gall bladder Wall", "setting": "[2]; [8]", "value": "3.07 ± 0.49", "unit": "μGy/MBq"}, {"measurement": "Estimated human absorbed dose, Heart Wall", "setting": "[2]; [8]", "value": "4.39 ± 0.62", "unit": "μGy/MBq"}, {"measurement": "Estimated human absorbed dose, Kidneys", "setting": "[2]; [8]", "value": "108.43 μGy/MBq and 108.43 ± 16.41 μGy/MBq"}, {"measurement": "Estimated human absorbed dose, LLI Wall", "setting": "[2]; [8]", "value": "2.86 ± 0.44", "unit": "μGy/MBq"}, {"measurement": "Estimated human absorbed dose, Liver", "setting": "[2]; [8]", "value": "7.54 ± 1.15", "unit": "μGy/MBq"}, {"measurement": "Estimated human absorbed dose, Lungs", "setting": "[2]; [8]", "value": "1.67 ± 0.28", "unit": "μGy/MBq"}, {"measurement": "Estimated human absorbed dose, Muscle", "setting": "[2]; [8]", "value": "1.88 ± 0.31", "unit": "μGy/MBq"}, {"measurement": "Estimated human absorbed dose, Osteogenic Cells", "setting": "[2]; [8]", "value": "7.01 ± 0.91", "unit": "μGy/MBq"}, {"measurement": "Estimated human absorbed dose, Pancreas", "setting": "[2]; [8]", "value": "2.86 ± 0.45", "unit": "μGy/MBq"}, {"measurement": "Estimated human absorbed dose, Red Marrow", "setting": "[2]; [8]", "value": "9.29 ± 1.02", "unit": "μGy/MBq"}, {"measurement": "Estimated human absorbed dose, Skin", "setting": "[2]; [8]", "value": "1.38 ± 0.24", "unit": "μGy/MBq"}, {"measurement": "Estimated human absorbed dose, Small Intestine", "setting": "[2]; [8]", "value": "4.53 ± 0.68", "unit": "μGy/MBq"}, {"measurement": "Estimated human absorbed dose, Spleen", "setting": "[2]; [8]", "value": "6.78 ± 0.88", "unit": "μGy/MBq"}, {"measurement": "Estimated human absorbed dose, Stomach Wall", "setting": "[2]; [8]", "value": "2.11 ± 0.34", "unit": "μGy/MBq"}, {"measurement": "Estimated human absorbed dose, Testes", "setting": "[2]; [8]", "value": "2.03 ± 0.33", "unit": "μGy/MBq"}, {"measurement": "Estimated human absorbed dose, Thymus", "setting": "[2]; [8]", "value": "1.56 ± 0.26", "unit": "μGy/MBq"}, {"measurement": "Estimated human absorbed dose, Thyroid", "setting": "[2]; [8]", "value": "1.39 ± 0.24", "unit": "μGy/MBq"}, {"measurement": "Estimated human absorbed dose, Total Body", "setting": "[2]; [8]", "value": "2.76 ± 0.42", "unit": "μGy/MBq"}, {"measurement": "Estimated human absorbed dose, ULI Wall", "setting": "[2]; [8]", "value": "2.47 ± 0.39", "unit": "μGy/MBq"}, {"measurement": "Estimated human absorbed dose, Urinary Bladder Wall", "setting": "[2]; [8]", "value": "87.07 μGy/MBq and 87.07 ± 12.38 μGy/MBq"}, {"measurement": "Urinary bladder uptake", "setting": "[3]; 1 h post injection, bladder not voided (anesthesia)", "value": "51.37%±8.73%"}, {"measurement": "Activity in gallbladder, small intestine, upper and lower large intestine", "setting": "[3]; 3 h post injection", "value": "8.62%±1.41%"}, {"measurement": "Gallbladder uptake", "setting": "[3]; during the whole scan", "value": "not observed"}, {"measurement": "tissue uptake dose", "setting": "[3]; kidneys, at 0.5 min, read-out: Maximum uptake for the kidneys", "value": "26.8 ± 4.35", "unit": "%ID"}, {"measurement": "tissue uptake dose", "setting": "[3]; liver, at 9 min, read-out: Maximum uptake for the liver", "value": "37.4 ± 6.63", "unit": "%ID"}, {"measurement": "Effects on vital signs (blood pressure, pulse, electrocardiogram)", "setting": "[4]", "value": "no observable effects on vital signs"}, {"measurement": "Activity remaining in blood", "setting": "[5]; 3 h after injection, decay corrected", "value": "2.88±0.88", "unit": "% ID"}, {"measurement": "Activity remaining in blood (range)", "setting": "[5]; 3 h after injection, range", "value": "2.07-3.82 % ID"}, {"measurement": "Activity in the blood", "setting": "[5]; 22 h after injection", "value": "0.79±0.52", "unit": "% ID"}, {"measurement": "Clearance from the blood", "setting": "[5]; decay corrected activity per unit of blood sample", "value": "cleared rapidly from the blood"}, {"measurement": "Stability", "setting": "[6]", "value": "great stability both in vitro and in vivo"}, {"measurement": "Tumor uptake", "setting": "U87MG glioblastoma tumor; U87MG glioblastoma tumor bearing mice, reference 23", "value": "high tumor uptake"}, {"measurement": "Normal organ uptake", "setting": "U87MG glioblastoma tumor; mouse, in vivo", "value": "low normal organ uptake"}]}
